Measurements taken from patent US20240336686A1 (ELPISCIENCE SUZHOU BIOPHARMA, published 2024).
Substitutions are numbered along the chain they refer to. Where two headings read alike, the source gives them in different places.

What was measured:
[1] = target: T1, human SIRPα v1 on CHOK1 cells (human, UniProt P78324 31-504); test: FACS, CHOK1 cells stably expressing human SIRPα v1
T1 construct: whole, on cells; also called CHOK1-hSIRPα v1; cell surface human SIRPα v1

[2] = target: T2, human SIRPα v2 ECD recombinant protein (human); test: competitive ELISA, plate-coated human SIRPα v2 ECD; blocked ligand: mFc tagged human CD47 ECD
T2 construct: extracellular domain; Coated on the ELISA plate
Method: (§1) Competitive ELISA assay was used to determine whether the purified chimeric antibodies can block CD47 and SIRPα interaction. Briefly, antibody and mFc tagged human CD47 ECD recombinant protein were co-incubated with ELISA microplate coated human SIRPα v1 ECD or human SIRPα v2 ECD recombinant protein. The concentration of soluble ECD of CD47 is 25 nM, and the concentration of soluble ECD of SIRPα is 20 nM. After washing, HRP labeled anti-mouse Fc 2nd antibody (Sigma) was added and incubated at 37° C. for 1 hour. Then, 100 μl/well of TMB solution (Biotechnology) was added. After incubation for 15 minutes at room temperature, the reaction was stopped by the addition of 50 μl of 1N HCl. OD 450 nm was read. Blocking ratio was determined by blockade of human SIRPα ECD recombinant protein binding to ELISA microplate coated human CD47 ECD recombinant protein. All antibodies as tested can block interaction between human CD47 and different human SIRPα variants.
(§2) The humanized antibodies were tested for the ability to block CD47 and SIRPα interaction with competitive ELISA assay (refer to methods described above).

[3] = target: T3, human SIRPα v2 on CHOK1 cells (human, UniProt P78324 31-504); test: FACS, CHOK1 cells stably expressing human SIRPα v2
T3 construct: whole, on cells; also called CHOK1-hSIRPα v2; cell surface human SIRPα v2

[4] = target: T4, Human SIRPα v2 (human); test: SPR (Biacore), 1:1 binding model
T4 construct: also called human SIRPα v2 (antigen of the Biacore assay)
Method: The humanized antibodies were characterized for binding affinity against human SIRPα v1, human SIRPα v2 using Surface Plasmon Resonance technology (Biacore system). The association and dissociation curves were fit with 1:1 binding model, and the Ka/Kd/KD values for each antibody were calculated.

[5] = target: T5, human SIRPα v1 ECD recombinant protein (human, UniProt P78324 31-373); test: competitive ELISA, plate-coated human SIRPα v1 ECD; blocked ligand: mFc tagged human CD47 ECD
T5 construct: extracellular domain; Coated on the ELISA plate
Method: as §1, §2

[6] = target: T6, Full length human SIRPα v1 with beta-gal fragment (ED) at its C-terminal, in K562 cells (human, UniProt P78324 31-504); test: cell-based or functional assay
[7] = target: T1, human SIRPα v1 on CHOK1 cells; test: competitive FACS, CHOK1 cells stably expressing human SIRPα v1; blocked ligand: mFc tagged human CD47 ECD
Method: (§3) Competitive FACS assay was also set up to further compare the blocking activity of the humanized antibodies and some known anti-SIRPα antibodies. Briefly antibody and mFc tagged human CD47 ECD recombinant protein were co-incubated with CHOK1 cells stably expressing human SIRPα v1 or human SIRPα v2. After washing, dye labeled anti-mouse Fc 2nd antibody (Sigma) was added and incubated at 37° C. for 1 hour. Fluorescence intensity was detected. Blocking ratio was determined by blockade of human CD47 ECD recombinant protein binding to SIRPα expressed CHOK1 cells.

[8] = target: T3, human SIRPα v2 on CHOK1 cells; test: competitive FACS, CHOK1 cells stably expressing human SIRPα v2; blocked ligand: mFc tagged human CD47 ECD
Method: as §3

[9] = target: T1, human SIRPα v1 on CHOK1 cells; test: FACS, CHOK1 cells stably expressing human SIRPα v1; remark: listed apart in the source
From the text: (§4) Binding activity of the purified chimeric antibodies against human SIRPα variants was detected by FACS assay using CHOK1 cells or 293F cells stably expressing human SIRPα v1 and CHOK1 cells stably expressing human SIRPα v2. […] EC₅₀ and top signal calculated using GraphPad Prism9.0.

[10] = target: T6, Full length human SIRPα v1 with …; test: cell-based or functional assay; remark: listed apart in the source
[11] = target: T5, human SIRPα v1 ECD recombinant protein; test: competitive ELISA, plate-coated human SIRPα v1 ECD; blocked ligand: mFc tagged human CD47 ECD; remark: listed apart in the source
Method: as §1

[12] = target: T2, human SIRPα v2 ECD recombinant protein; test: competitive ELISA, plate-coated human SIRPα v2 ECD; blocked ligand: mFc tagged human CD47 ECD; remark: listed apart in the source
Method: as §1

[13] = target: T3, human SIRPα v2 on CHOK1 cells; test: FACS, CHOK1 cells stably expressing human SIRPα v2; remark: listed apart in the source
From the text: as §4

[14] = target: human PDL1 protein (Octet assay) (human, UniProt Q9NZQ7 19-238); test: Octet; antibody on sensor, PDL1 protein in solution
Method: The Anti-PDL1/SIRPα bispecific protein were characterized for binding affinity against human PDL1 using Octet assay (ForeBio) according to manufacturer's manual, separately. Briefly, the antibodies were coupled on sensors and then the sensors were dipped into PDL1 protein gradients (start at 200 nM, with 2-fold dilution and totally 8 doses). Their binding responses were measured in real-time and results were fit globally.

[15] = target: human PDL1 on cells (human, UniProt Q9NZQ7 19-290); test: cell-based or functional assay
Chain of human PDL1 on cells (Q9NZQ7 19-290): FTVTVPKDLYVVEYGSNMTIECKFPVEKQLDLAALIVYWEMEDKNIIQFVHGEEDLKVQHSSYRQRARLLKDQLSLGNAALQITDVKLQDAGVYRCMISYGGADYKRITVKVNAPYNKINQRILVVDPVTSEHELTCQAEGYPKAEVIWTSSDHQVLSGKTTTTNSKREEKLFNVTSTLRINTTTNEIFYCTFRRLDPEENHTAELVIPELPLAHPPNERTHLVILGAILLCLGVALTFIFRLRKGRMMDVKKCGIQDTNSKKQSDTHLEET

Chain of human PDL1 protein (Octet assay) (Q9NZQ7 19-238 limits assumed): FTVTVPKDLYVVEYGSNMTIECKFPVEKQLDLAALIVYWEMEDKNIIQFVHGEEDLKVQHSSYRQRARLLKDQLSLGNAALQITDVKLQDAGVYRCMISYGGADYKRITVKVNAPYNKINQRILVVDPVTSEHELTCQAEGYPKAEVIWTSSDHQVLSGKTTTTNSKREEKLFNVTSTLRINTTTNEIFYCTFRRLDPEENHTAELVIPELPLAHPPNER
T5 sequence (P78324 31-373): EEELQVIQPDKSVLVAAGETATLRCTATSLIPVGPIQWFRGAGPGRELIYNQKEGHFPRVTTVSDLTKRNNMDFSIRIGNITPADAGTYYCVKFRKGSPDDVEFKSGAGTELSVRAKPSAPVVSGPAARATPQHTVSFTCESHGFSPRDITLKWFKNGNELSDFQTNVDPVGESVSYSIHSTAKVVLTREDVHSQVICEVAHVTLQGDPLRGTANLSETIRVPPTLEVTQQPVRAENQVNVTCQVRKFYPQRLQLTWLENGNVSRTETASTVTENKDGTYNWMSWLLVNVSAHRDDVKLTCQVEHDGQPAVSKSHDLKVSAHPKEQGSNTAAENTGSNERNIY
T3 sequence (P78324 other isoform, or with tags, fused parts or gaps limits assumed): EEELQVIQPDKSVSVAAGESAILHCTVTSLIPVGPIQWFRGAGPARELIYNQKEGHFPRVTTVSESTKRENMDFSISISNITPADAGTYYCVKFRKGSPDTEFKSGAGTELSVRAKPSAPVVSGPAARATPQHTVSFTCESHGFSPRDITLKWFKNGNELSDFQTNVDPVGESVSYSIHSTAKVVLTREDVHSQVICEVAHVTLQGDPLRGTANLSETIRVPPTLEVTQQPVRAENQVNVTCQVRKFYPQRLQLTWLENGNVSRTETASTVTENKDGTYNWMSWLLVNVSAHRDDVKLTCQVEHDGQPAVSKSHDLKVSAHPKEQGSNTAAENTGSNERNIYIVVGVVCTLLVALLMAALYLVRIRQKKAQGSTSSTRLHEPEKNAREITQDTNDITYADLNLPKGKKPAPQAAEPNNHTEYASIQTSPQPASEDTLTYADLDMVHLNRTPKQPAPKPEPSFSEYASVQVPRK
T6 sequence (P78324 31-504): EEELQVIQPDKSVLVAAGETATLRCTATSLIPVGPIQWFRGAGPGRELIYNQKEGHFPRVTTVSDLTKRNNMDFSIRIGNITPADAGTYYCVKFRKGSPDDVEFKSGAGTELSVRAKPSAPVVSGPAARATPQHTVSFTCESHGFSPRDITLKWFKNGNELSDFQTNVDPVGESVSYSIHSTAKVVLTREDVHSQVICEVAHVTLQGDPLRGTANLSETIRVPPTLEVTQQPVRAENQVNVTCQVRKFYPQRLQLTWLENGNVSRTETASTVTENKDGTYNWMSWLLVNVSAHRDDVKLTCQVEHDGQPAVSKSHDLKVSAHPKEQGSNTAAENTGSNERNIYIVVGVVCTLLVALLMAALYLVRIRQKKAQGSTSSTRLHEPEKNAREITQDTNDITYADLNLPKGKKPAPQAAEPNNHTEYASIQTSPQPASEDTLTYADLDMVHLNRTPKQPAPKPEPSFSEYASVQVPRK
T1 sequence (P78324 31-504): as above

B1: Humanized anti-SIRPα antibody hu025.021 (antibody, V domains shown)
VH: EVQLVQSGAEVKKPGATVKISCKVSGFNIKDYYMHWVQQAPGKGLEWIGRIDPEDAETKYAPKFQGRVTITADTSTNTAYMELSSLRSEDTAVYYCDRGLAYWGQGTLVTVSS
VL: EIVLTQSPATLSLSPGERATLSCSASSSVSSSYLYWYQQKPGQAPKLWIYSTSNLASGIPARFSGSGSGTDYTLTISSLEPEDFAVYYCHQWSSYPYTFGQGTKLEIK
notes: Humanized from C25
[1]
  EC50: 1.08 nM
  TOP MFI: 56400 MFI
[2]
  IC50: 1.96 nM
  TOP blocking: 98.3%
[3]
  EC50: 0.87 nM
  TOP MFI: 46400 MFI
[4]
  Kd: 3.39 nM
  koff: 0.0056 s⁻¹
  kon: 1.65e+06 M⁻¹ s⁻¹
[5]
  IC50: 2.07 nM
  TOP blocking: 97.7%
[6]
  IC50 (SHP-1 recruitment blocking): 0.1 nM
  TOP blocking (SHP-1 recruitment): 86.3%

B2: Humanized anti-SIRPα antibody hu025.023 (antibody, V domains shown)
VH: B1 VH
VL: B1 VL with Y72F
notes: Humanized from C25
[1]
  EC50: 1.13 nM
  TOP MFI: 57800 MFI
[2]
  IC50: 2.07 nM
  TOP blocking: 98%
[7]
  IC50: 0.57 nM
  TOP blocking: 97.7%
[3]
  EC50: 0.81 nM
  TOP MFI: 45800 MFI
[8]
  IC50: 0.75 nM
  TOP blocking: 100%
[4]
  Kd: 2.78 nM
  koff: 0.00492 s⁻¹
  kon: 1.77e+06 M⁻¹ s⁻¹
[5]
  IC50: 2.6 nM
  TOP blocking: 97.2%
[6]
  IC50 (SHP-1 recruitment blocking): 0.1 nM
  TOP blocking (SHP-1 recruitment): 85.5%

B3: Humanized anti-SIRPα antibody hu025.060 (antibody, V domains shown)
VH: B1 VH with V24A
VL: B1 VL with Y72F
notes: Humanized from C25
[1]
  EC50: 0.84 nM
  TOP MFI: 61500 MFI
[2]
  IC50: 1.88 nM
  TOP blocking: 97%
[7]
  IC50: 0.53 nM
  TOP blocking: 98.7%
[3]
  EC50: 0.8 nM
  TOP MFI: 48800 MFI
[8]
  IC50: 0.77 nM
  TOP blocking: 99.8%
[4]
  Kd: 2.34 nM
  koff: 0.00344 s⁻¹
  kon: 1.47e+06 M⁻¹ s⁻¹
[5]
  IC50: 2.15 nM
  TOP blocking: 95.2%
[6]
  IC50 (SHP-1 recruitment blocking): 0.09 nM
  TOP blocking (SHP-1 recruitment): 87.5%

B4: Humanized anti-SIRPα antibody hu025.059 (antibody, V domains shown)
VH: B1 VH with V24A
VL: B1 VL
notes: Humanized from C25
[1]
  EC50: 1.05 nM
  TOP MFI: 59400 MFI
[2]
  IC50: 2.03 nM
  TOP blocking: 98.3%
[3]
  EC50: 0.75 nM
  TOP MFI: 47300 MFI
[4]
  Kd: 2.76 nM
  koff: 0.00392 s⁻¹
  kon: 1.42e+06 M⁻¹ s⁻¹
[5]
  IC50: 2.48 nM
  TOP blocking: 97.1%
[6]
  IC50 (SHP-1 recruitment blocking): 0.1 nM
  TOP blocking (SHP-1 recruitment): 78.8%

B5: Anti-SIRPα antibody C15 (antibody, V domains shown)
VH: EVQLQQSGVEVVQPGASVKLSCTASGFNIEAYYMHWVKQRTEQGLEWIGRIDPEDGESKYAPKFQGKATMTADTSSSTAYLQLSSLTSDDTAVYYCVRGSYEYWGQGTTLTVSS
VL: QIVLTQSPAIMSASPGEKVTLTCSASSSVSSSYLYWYQQKPGSSPKLWIYSTSNLASGVPPRFSGSGSGTSYSLTISSMQAEDAASYFCYQWSSYPYTFGGGTKLEIK
notes: Mouse variable regions; tested as purified chimeric antibody; also called 015c
[9]
  EC50: 1.49 nM
  TOP MFI: 80000 MFI
[10]
  IC50 (SHP-1 recruitment blocking): 0.09 nM
  TOP blocking (SHP-1 recruitment): 73.5%
[11]
  IC50: 2.32 nM
  TOP blocking: 96.4%
[12]
  IC50: 2.45 nM
  TOP blocking: 96.7%
[13]
  EC50: 1.58 nM
  TOP MFI: 50100 MFI

B6: Anti-PDL1/SIRPα bispecific antibody ES019-026 (bispecific antibody, not shown: small tags and cut ends; a dimerising Fc or GST)
light (part 1 of 2): EVQVVESGGGLVQSGGSLKLSCAGSGFTESAGFMVWHRQVPGKERELVALIATPSGSTNYADSVKGRFTISRDNGKNTVYLQMNSLKPEDTAVYYCNIRGYWGQGTLVTVSS
light (part 2 of 2): B5 VL with P61A, Q80E, Y90H
heavy: EVQLQQSGAELVKPGASVKLSCTASGFNIKDYYMHWVKQRTEQGLEWIGRIDPEDGETKYAPKFQGKATITADTSSNTAYLQLSSLTSEDTAVYYCDRGLAYWGQGTLVTVSA
[14]
  Kd: 4.1 nM
  koff: 0.00639 s⁻¹
  kon: 1.56e+06 M⁻¹ s⁻¹
[15]
  EC50 (read off the curve): ~1 nM

B7: Anti-SIRPα antibody C59 (antibody, V domains shown)
VH: QVQLQQSGPELVKPGASVKMSCKASGYTFSEYVLSWVKQRTGQGLEWIGEIYPGTITTYYNEKFKGKATLTADKSSNTAYIQLTSLTSEDSAVYFCGRFYDYDGGWFAYWGQGTLLTVSA
VL: ENVLTQSPEKMAVSLGQKVTMTCSASSSVSSSDLHWYQQKSGASPKPLIHGTSNLASGVPARFSGSGSGTSYSLTISSVEAEDAATYYCQQWSGYPWTFGGGTNLEIK
notes: Mouse variable regions; tested as purified chimeric antibody; also called 059c
[9]
  EC50: 1.45 nM
  TOP MFI: 69800 MFI
[10]
  IC50 (SHP-1 recruitment blocking): 0.07 nM
  TOP blocking (SHP-1 recruitment): 66.9%
[11]
  IC50: 2.63 nM
  TOP blocking: 97%
[12]
  IC50: 54.1 nM
  TOP blocking: 84.4%
[13]
  EC50: 12 nM
  TOP MFI: 19600 MFI
